One experiment has as its target T1, hIL-33WT (human, UniProt O95760 112-270, limits assumed).
T1 sequence (looked up): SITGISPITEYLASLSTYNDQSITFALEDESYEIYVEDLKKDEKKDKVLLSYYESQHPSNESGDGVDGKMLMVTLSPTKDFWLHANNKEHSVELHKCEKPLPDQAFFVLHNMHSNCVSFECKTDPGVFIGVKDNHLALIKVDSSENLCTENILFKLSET
Nature of the experiment: cell-based or functional assay.

The target of experiment [1] is T2, 人IL33-his重组蛋白 (human, UniProt O95760 112-270).
T2 construct: range 112-270; also called human IL-33; not shown: his tag
T2 sequence (looked up): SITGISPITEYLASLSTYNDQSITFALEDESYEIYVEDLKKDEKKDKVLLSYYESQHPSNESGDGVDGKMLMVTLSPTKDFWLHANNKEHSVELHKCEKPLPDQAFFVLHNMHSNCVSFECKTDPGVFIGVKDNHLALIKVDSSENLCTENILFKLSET
Nature of the experiment: BLI (ForteBio), antibody captured on AHC probe, IL33-his 15-60 nM in solution, 1:1 fit. (Biolayer interferometry detects binding as a change in optical thickness at a sensor tip.)

Experiment [2] addresses T2, 人IL33-his重组蛋白. Nature of the experiment: BLI (ForteBio), Example 3.

The record followed here is CN114395042A (BEIJING COONOXIN ZONGCHENG SCIENCE AND TECH CO, dated 2022).

B1: ANB020 (antibody, V domains shown)
VH: QVQLMQSGAEVKKPGASVKVSCKASGYTFTSYWMHWVRQAPGQGLEWMGTIYPRNSNTDYNQKFKARVTMTRDTSTSTVYMELSSLRSEDTAVYYCARPLYYYLTSPPTLFWGQGTLVTVSS
VL: DIQLTQSPSFLSASVGDRVTLTCKASQDVGTAVAWTQQKPGKAPKLLIYWASTRHTGVPSRFSGSGSGTEFTLTISSLQPEDFATYYCQQAKTYPFTFGSGTKLEIK
notes: The variable regions were cloned into vectors holding human IgG1 light and heavy chain constant regions; also called 对照抗体ANB020; 对照抗体
Broadly, the Kd is the equilibrium constant for the complex coming apart. Higher therefore signals lower affinity. Broadly, the koff is a measure of how fast the partners let go of each other. As a reminder, the kon is the second-order rate constant of association. A higher kon goes with fast association. For B1, the “IC50 of inhibition of IL-33-stimulated IL-5 production by KU812 cells” value with hIL-33WT worked out at 5.82 µg/mL. Further, in the experiment with 人IL33-his重组蛋白 [1], the Kd was 6.7 nM, the koff was 0.000419 s⁻¹ and the kon was 62500 M⁻¹ s⁻¹.

B2: ch25D8 (antibody, human IgG1, kappa, V domains shown)
VH: QVQLQQSGTELVKPGASVKLSCKTSGYTFTSYWIQWVKQRPGQGLGWIGEIFPGTGTTYYNEKFKGKATLTTDTSSTTAYMQLSSLTSEDSAVYFCARRIRDYYGSNYFDYWGQGTTLTVSS
VL: QIVLTQSPAIMSASPGEKVTITCSASSSVSYMHWFQQKPGTSPKLWIYRTSNLASGVPDRFSGSGSGTSYSLTISRMEAEDAATYYCLQRSTYLFMFGAGTKLELKR
notes: also called 嵌合抗体ch25D8; 25D8分子的嵌合抗体
Take B2: in the experiment with 人IL33-his重组蛋白 [2], binding was characterised by a dissociation constant (Kd) of 0.617 nM, the koff worked out at 0.000472 s⁻¹ and the kon is 766000 M⁻¹ s⁻¹. In addition, in the experiment with 人IL33-his重组蛋白 [1], the affinity, expressed as Kd, was 0.9 nM; the off-rate (koff) stood at 7.53e-05 s⁻¹; the kon turned out to be 83600 M⁻¹ s⁻¹.

B3: ch25H12 (antibody, human IgG1, kappa, V domains shown)
VH: EVQLQQSGAELVKPGASVKLSCTASGFNIKDTYIHWVKQRPEQGLEWIGRIDPTADNTKYHPKFQGKATLTADTSSNTAYLQLSSLTSEDTAVYFCARGSSYALDYWGQGTSVTVSS
VL: QIVLTQSPAIMSASPGEKVTITCSASSSVSYMHWFQQKPGTSPKLWIYRTSNLASGVPDRFSGSGSGTSYSLTISRMEAEDAATYYCQQRSSYLFMFGAGTKLELKR
notes: Human-mouse chimeric IgG1/kappa expressed in HEK293 and purified on Protein A; also called 嵌合抗体ch25H12
As for B3, in the experiment with 人IL33-his重组蛋白 [1], binding was put at a Kd of 77.7 nM, the koff came out at 0.000619 s⁻¹ and the on-rate constant (kon) is 7970 M⁻¹ s⁻¹.

B4: h25D8H1L1 (antibody, human IgG1, kappa, V domains shown)
VH: QVQLVQSGAEVKKPGASVKLSCKTSGYTFTSYWIQWVRQAPGQGLEWIGEIFPGTGTTYYNQKFQGRATLTTDTSTTTAYMELSSLRSEDTAVYFCARRIRDYYGSNYFDYWGQGTTLTVSS
VL: DIQLTQSPSSMSASVGDRVTITCRASSSVSYMHWFQQKPGKAPKLWIYRTSNLQSGVPSRFSGSGSGTDYTLTISSMQPEDFATYYCLQRSTYLFMFGQGTKLELKR
notes: also called 人源化抗体h25D8H1L1; hzVH1/hzVL1
Consider B4, for which the “IC50 of inhibition of IL-33-stimulated IL-5 production by KU812 cells” value with hIL-33WT came out at 0.677 µg/mL. For the same molecule, in the experiment with 人IL33-his重组蛋白 [2], binding was put at a Kd of 0.61 nM, the koff worked out at 0.000366 s⁻¹ and the kon came out at 600000 M⁻¹ s⁻¹.
